± gives the uncertainty stated by the source.
Test: self-splicing fitness, log relative to wild type (ln ratio); higher = more splicing; Tetrahymena group I intron in knt gene, E. coli kanamycin selection, DiMSum; sequences stand for … in CUCUCU…GGAGGGAAAAGUUAUCAGGCAUGCACCUGGUAGCUAGUCUUUAAACCAAUAGAUUGCAUCGGUUUAAAAGGCAAGACCGUCAAAUUGCGGGAAAGGGGUCAACAGCCGUUCAGUACCAAGUCUCAGGGGAAACUUUGAGAUGGCCUUGCAAAGGGUAUGGUAAUAAGCUGACGGACAUGGUCCUAACCACGCAGCCAAGUCCUAAGUCAACAGAUCUUCUGUUGAUAUGGAUGCAGUUCACAGACUAAAUGUCGGUCGGGGAAGAUGUAUUCUUCUCAUAAGAUAUAGUCGGACCUCUCCUUAAUGGGAGCUAGCGGAUGAAGUGAUGCAACACUGGAGCCGCUGGGAACUAAUUUGUAUGCGAAAGUAUAUUGAUUAGUUUUGGAGUACUCGUGGUCG
In short: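 Fitness was computed with DiMSum as the error-weighted combination of replicate fold changes, kanamycin versus none, each normalised to wild type. The library randomised all eight intron nucleotides of the P1ex region, with the intron placed in the knt kanamycin-resistance gene on pET-22b(+) in E. coli BL21(DE3). Six replicate transformations were grown overnight at 37°C or 30°C on LB agar with or without 25 μg/mL kanamycin, plus 100 μg/mL carbenicillin, 50 μM IPTG and 0.2% rhamnose. Pooled colonies were amplicon-sequenced on an Illumina HiSeq 2500.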

Row | Sequence | self-splicing fitness (ln) (30 °C) | self-splicing fitness (ln) (37 °C)
1 | CUCAAGCAAUAUUACGCAAC | -2.65 ± 0.36 | 
2 | CUCAAGCAAUAUUACGCAUG | -4.22 ± 0.36 | -1.65 ± 0.18
3 | CUCAAGCAAUAUUACGCCAU |  | -1.99 ± 0.37
4 | CUCAAGCAAUAUUACGCCCU | -3.13 ± 0.44 | -1.36 ± 0.36
5 | CUCAAGCAAUAUUACGCCUC | -2.98 ± 0.14 | -2.97 ± 0.28
6 | CUCAAGCAAUAUUACGCUGG | -3.19 ± 0.15 | -2.62 ± 0.23
7 | CUCAAGCAAUAUUACGCUUC | -2.35 ± 0.26 | -2.7 ± 0.26
8 | CUCAAGCAAUAUUACGGAAC | -4.26 ± 0.42 | -2.46 ± 0.3
9 | CUCAAGCAAUAUUACGGCUG | -3.41 ± 0.26 | -2.57 ± 0.27
10 | CUCAAGCAAUAUUACGGGGA | -2.01 ± 0.15 | -1.33 ± 0.17
11 | CUCAAGCAAUAUUACGGUCA | -3.19 ± 0.2 | -2.35 ± 0.2
12 | CUCAAGCAAUAUUACGGUCC | -3.02 ± 0.22 | 0.396 ± 0.18
13 | CUCAAGCAAUAUUACGGUCG | -1.96 ± 0.098 | -1.19 ± 0.12
14 | CUCAAGCAAUAUUACGUAAU | -3.29 ± 0.12 | -2.22 ± 0.1
15 | CUCAAGCAAUAUUACGUAUU | -3.74 ± 0.19 | -2.58 ± 0.21
16 | CUCAAGCAAUAUUACGUCUC | -4.33 ± 0.39 | -0.263 ± 0.2
17 | CUCAAGCAAUAUUACGUGUA | -2.47 ± 0.13 | -1.91 ± 0.11
18 | CUCAAGCAAUAUUACGUUUC | -4.05 ± 0.24 | -3.83 ± 0.37
19 | CUCCAGCAAUAUUACGAACU | -2.92 ± 0.33 | -1.12 ± 0.29
20 | CUCCAGCAAUAUUACGAAGA |  | -3.41 ± 0.42
21 | CUCCAGCAAUAUUACGAAUG | -1.39 ± 0.083 | -0.438 ± 0.11
22 | CUCCAGCAAUAUUACGAGCG | -2.95 ± 0.16 | -2.56 ± 0.23
23 | CUCCAGCAAUAUUACGAGCU | -4.01 ± 0.28 | -2.44 ± 0.23
24 | CUCCAGCAAUAUUACGAGGU | -4.41 ± 0.31 | -3.07 ± 0.24
25 | CUCCAGCAAUAUUACGAUAA | -3.22 ± 0.16 | -2.41 ± 0.18

Row | Sequence | self-splicing fitness (ln) (30 °C) | self-splicing fitness (ln) (37 °C)
26 | CUCCAGCAAUAUUACGAUAG | -1.6 ± 0.079 | -0.825 ± 0.1
27 | CUCCAGCAAUAUUACGAUUG | -1.53 ± 0.078 | -0.899 ± 0.11
28 | CUCCAGCAAUAUUACGCCCG | -2.56 ± 0.17 | -0.904 ± 0.19
29 | CUCCAGCAAUAUUACGCCGG | -3.83 ± 0.26 | -2.98 ± 0.24
30 | CUCCAGCAAUAUUACGCCGU | -3.6 ± 0.3 | -3.11 ± 0.35
31 | CUCCAGCAAUAUUACGCCUA | -2.87 ± 0.2 | -1.94 ± 0.2
32 | CUCCAGCAAUAUUACGCUCG | -3.69 ± 0.27 | -2.36 ± 0.39
33 | CUCCAGCAAUAUUACGCUGC | -3.32 ± 0.15 | -2.07 ± 0.21
34 | CUCCAGCAAUAUUACGGCAC | -3.68 ± 0.23 | -3.27 ± 0.47
35 | CUCCAGCAAUAUUACGGCGA | -2.16 ± 0.22 | -1.6 ± 0.2
36 | CUCCAGCAAUAUUACGGUCG | -0.742 ± 0.054 | -0.679 ± 0.071
37 | CUCCAGCAAUAUUACGUCCG | -2.63 ± 0.11 | -1.73 ± 0.12
38 | CUCCAGCAAUAUUACGUGAC | -3.38 ± 0.15 | -2.98 ± 0.3
39 | CUCCAGCAAUAUUACGUGCC | -3.68 ± 0.33 | -0.249 ± 0.27
40 | CUCGAGCAAUAUUACGAAAU | -3.36 ± 0.42 | -2.38 ± 0.27
41 | CUCGAGCAAUAUUACGAAGU | -3.64 ± 0.43 | -1.84 ± 0.35
42 | CUCGAGCAAUAUUACGACGA | -2.5 ± 0.24 | -1.26 ± 0.29
43 | CUCGAGCAAUAUUACGACUG | -1.28 ± 0.1 | -0.299 ± 0.15
44 | CUCGAGCAAUAUUACGAGCC |  | -1.68 ± 0.2
45 | CUCGAGCAAUAUUACGAGCU | -3.85 ± 0.32 | 
46 | CUCGAGCAAUAUUACGAGUA | -2.77 ± 0.24 | -2.75 ± 0.31
47 | CUCGAGCAAUAUUACGAGUC | -3.52 ± 0.32 | -2.53 ± 0.2
48 | CUCGAGCAAUAUUACGCAGU | -2.06 ± 0.12 | -2.83 ± 0.25
49 | CUCGAGCAAUAUUACGCCUA |  | -0.858 ± 0.46
50 | CUCGAGCAAUAUUACGCGCG | -2.81 ± 0.27 | -1.48 ± 0.32

Row | Sequence | self-splicing fitness (ln) (30 °C) | self-splicing fitness (ln) (37 °C)
51 | CUCGAGCAAUAUUACGCGGC | -3.35 ± 0.47 | -3.16 ± 0.4
52 | CUCGAGCAAUAUUACGCGGU | -4.23 ± 0.46 | -1.97 ± 0.27
53 | CUCGAGCAAUAUUACGCUAC | -0.697 ± 0.2 | 
54 | CUCGAGCAAUAUUACGCUGU |  | -2.66 ± 0.44
55 | CUCGAGCAAUAUUACGGACU | -2.35 ± 0.19 | -1.95 ± 0.26
56 | CUCGAGCAAUAUUACGGCGA | -3.88 ± 0.46 | -2.61 ± 0.36
57 | CUCGAGCAAUAUUACGGCUG | -3.82 ± 0.42 | -1.94 ± 0.29
58 | CUCGAGCAAUAUUACGUAAA | -3.8 ± 0.34 | 
59 | CUCGAGCAAUAUUACGUAGG | -1.11 ± 0.11 | -0.804 ± 0.15
60 | CUCGAGCAAUAUUACGUAGU | -3.91 ± 0.26 | -2.18 ± 0.21
61 | CUCGAGCAAUAUUACGUGUA | -2.89 ± 0.12 | -3.35 ± 0.22
62 | CUCUAGCAAUAUUACGACCU | -2.94 ± 0.3 | 
63 | CUCUAGCAAUAUUACGAGGA | -2.32 ± 0.19 | -1.59 ± 0.17
64 | CUCUAGCAAUAUUACGAGUG | -1.62 ± 0.14 | -1.09 ± 0.15
65 | CUCUAGCAAUAUUACGCAGG | -3.35 ± 0.26 | -3.04 ± 0.47
66 | CUCUAGCAAUAUUACGCAUC |  | -2.64 ± 0.36
67 | CUCUAGCAAUAUUACGCCGG | -2.98 ± 0.31 | -1.92 ± 0.45
68 | CUCUAGCAAUAUUACGCGGU | -3.25 ± 0.26 | -2.59 ± 0.29
69 | CUCUAGCAAUAUUACGCGUA | -4.1 ± 0.27 | -3.32 ± 0.24
70 | CUCUAGCAAUAUUACGCGUG | -3.84 ± 0.22 | -3.01 ± 0.19
71 | CUCUAGCAAUAUUACGCUAA | -2.65 ± 0.35 | -2.26 ± 0.4
72 | CUCUAGCAAUAUUACGCUCG | -3.05 ± 0.25 | -1.68 ± 0.23
73 | CUCUAGCAAUAUUACGGAUA | -3.57 ± 0.24 | -2.71 ± 0.22
74 | CUCUAGCAAUAUUACGGGAC | -2.77 ± 0.19 | -3.65 ± 0.46
75 | CUCUAGCAAUAUUACGGGUC | -5.03 ± 0.34 | -2.21 ± 0.18

Row | Sequence | self-splicing fitness (ln) (30 °C) | self-splicing fitness (ln) (37 °C)
76 | CUCUAGCAAUAUUACGGUAA | -2.38 ± 0.24 | -2.14 ± 0.21
77 | CUCUAGCAAUAUUACGUACG | -2.5 ± 0.23 | -1.4 ± 0.17
78 | CUCUAGCAAUAUUACGUCGA | -4.25 ± 0.42 | -0.879 ± 0.19
79 | CUCUAGCAAUAUUACGUCGG | -3.22 ± 0.22 | -1.57 ± 0.18
80 | CUCUAGCAAUAUUACGUGCA | -2.34 ± 0.43 | 
81 | CUGAAGCAAUAUUACGAAAU | -3.78 ± 0.27 | -2.38 ± 0.25
82 | CUGAAGCAAUAUUACGACCC | -2.58 ± 0.38 | 
83 | CUGAAGCAAUAUUACGAGAU | -2.63 ± 0.15 | -1.57 ± 0.15
84 | CUGAAGCAAUAUUACGAGCA | -3.59 ± 0.19 | -2.01 ± 0.2
85 | CUGAAGCAAUAUUACGAGGU | -3.28 ± 0.11 | -2.41 ± 0.17
86 | CUGAAGCAAUAUUACGAUGG | -0.0919 ± 0.065 | 0.123 ± 0.095
87 | CUGAAGCAAUAUUACGCAAG | -0.812 ± 0.12 | 0.142 ± 0.18
88 | CUGAAGCAAUAUUACGCACC | -2.27 ± 0.34 | 
89 | CUGAAGCAAUAUUACGCGGA | -3.45 ± 0.16 | -1.7 ± 0.2
90 | CUGAAGCAAUAUUACGCGUA | -4.36 ± 0.36 | -1.98 ± 0.26
91 | CUGAAGCAAUAUUACGCUCG | -0.21 ± 0.086 | -0.613 ± 0.087
92 | CUGAAGCAAUAUUACGCUUG | -2.33 ± 0.13 | -1.79 ± 0.14
93 | CUGAAGCAAUAUUACGGUAC | -2.82 ± 0.18 | -2.71 ± 0.26
94 | CUGAAGCAAUAUUACGGUCU | -4.07 ± 0.36 | -2.24 ± 0.27
95 | CUGAAGCAAUAUUACGGUGU | -3.3 ± 0.1 | -2.95 ± 0.12
96 | CUGAAGCAAUAUUACGUAAG | -0.797 ± 0.08 | 0.0174 ± 0.086
97 | CUGAAGCAAUAUUACGUAUU | -3.86 ± 0.22 | -2.85 ± 0.3
98 | CUGAAGCAAUAUUACGUGAG | -0.269 ± 0.044 | 0.305 ± 0.065
99 | CUGAAGCAAUAUUACGUGCC |  | -1.64 ± 0.49
100 | CUGAAGCAAUAUUACGUUUA | -3.97 ± 0.24 | 
